In patent publication WO2007023782A1 (dated 2007):

Tests used:
[1] = molecular target: T1, nmAb-KT (neutralizing monoclonal antibody against HM-1 killer toxin); test: SPR (BIAcore X), nmAb-KT immobilised on CM5 chip, ScFv 15.75-250 nM as analyte, 25 C, HBS-EP
T1 construct: also called nmb-KT; HM-1 neutralizing monoclonal antibody

[2] = molecular target: T2, BSA (Bovine serum albumine) (bovine, UniProt P02769 25-607); test: SPR (BIAcore X), BSA negative control
T2 construct: Negative control; also called negative control
T2 sequence (P02769 25-607 limits assumed): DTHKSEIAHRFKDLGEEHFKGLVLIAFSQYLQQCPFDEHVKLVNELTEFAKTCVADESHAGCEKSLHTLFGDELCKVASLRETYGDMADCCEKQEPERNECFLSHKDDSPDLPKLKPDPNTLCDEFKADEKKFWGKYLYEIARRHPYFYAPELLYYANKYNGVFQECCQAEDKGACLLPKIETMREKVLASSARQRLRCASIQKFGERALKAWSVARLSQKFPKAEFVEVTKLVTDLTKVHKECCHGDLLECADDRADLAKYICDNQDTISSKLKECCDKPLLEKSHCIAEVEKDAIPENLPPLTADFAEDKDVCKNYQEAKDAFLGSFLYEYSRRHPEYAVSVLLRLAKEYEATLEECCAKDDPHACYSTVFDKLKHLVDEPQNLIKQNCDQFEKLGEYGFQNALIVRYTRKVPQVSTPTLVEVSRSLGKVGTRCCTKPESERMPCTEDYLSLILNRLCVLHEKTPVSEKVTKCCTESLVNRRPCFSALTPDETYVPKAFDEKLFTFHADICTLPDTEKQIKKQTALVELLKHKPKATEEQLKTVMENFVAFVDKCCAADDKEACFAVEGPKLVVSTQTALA

[3] = molecular target: T1, nmAb-KT (neutralizing monoclonal …); test: SPR (BIAcore X), nmAb-KT immobilised on CM5 chip; Ka = kon/koff
[4] = molecular target: T1, nmAb-KT (neutralizing monoclonal …); test: SPR (BIAcore X), nmAb-KT immobilised, rounded against Table 2
[5] = molecular target: T1, nmAb-KT (neutralizing monoclonal …); test: SPR (BIAcore X), nmAb-KT immobilised, differs in the last digit from Table 2
[6] = molecular target: T1, nmAb-KT (neutralizing monoclonal …); test: SPR (BIAcore X), nmAb-KT immobilised; ratio of Ka values

Row | Binder | koff [1] [s⁻¹] | kon [1] [M⁻¹ s⁻¹] | binding result [2] | Ka [3] [M⁻¹] | Ka [4] [M⁻¹] | Ka [5] [M⁻¹] | fold of affinity constant Ka against ScFv-A1 or ScFv-A4 [6] [fold] | fold of affinity constant Ka against ScFv-A3 [6] [fold]
1 | ScFv-A4 (scFv, Mouse anti-idiotypic single chain Fv, VH-(Gly4Ser)3 linker-VL, with a C-terminal E-Tag; also called ScFv KTIdAb; anti-idiotypic ScFv) scFv: MAQVKLQQSGAELMKPGASVKISCKATGYTFSSYWIEWVKQRPGHGLEWIGEILPGSGSTNYNEKFKGKATFTADTSSNTAYMQLSSLTSEDSAVYYCARYYGNYYAMDYWGQGTTVTVSSGGGGSGGGGSGGGGSDIVLTQSPAIMSASPGEKSPSPAVSAQVYVPATCTGTSRSQKPPPNPGFMAHPTWLLESQVASVAVGLENSYSLTISSMEAEDVATYYCFQGSGYPLTFGSGTKLEIKRAAAGAPVPYPDPLEPR | 0.005 | 224000 | no binding (tested: 15.75 nM-250 nM ScFv) | 4.48e+07 | – | – | – | –
2 | ScFv-A1 (scFv, also called ScFv-Al; ScFv KTIdAb) scFv: MAQVKLQQSGAELMKPGASVKISCKATGYTFSSYWIEWVKQRPGHGLEWIGEILPGSGSTNYNEKFKGKATFTADTSSNTAYMQLSSLTSEDSAVYYCARYYGNYYAMDYWGQGTTVTVSSGGGGSGGGGSGGGGSDIVLTQSPAIMSASPGEKVTITCSVSSSISSSNLHWYQQKSETSPKPWIYGTSNLASGVPGRFSGSGSGNSYSLTISSMEAEDVATYYCFQGSGYPLTFGSGTKLEIKRAAAGAPVPYPDPLEPR | 0.00507 | 243000 | no binding (tested: 15.75 nM-250 nM ScFv) | 4.79e+07 | 4.8e+07 | – | – | –
3 | ScFv-A3 (scFv, Mouse anti-idiotypic single chain Fv, VH-(Gly4Ser)3 linker-VL, with a C-terminal E-Tag; also called ScFv KTIdAb; anti-idiotypic ScFv) scFv: MAQVKLQQSGAELMKPGASVKISCKATGYTFSSYWIEWVKQRPGHGLEWIGEILPGSGSTNYNEKFKGKATFTADTSSNTAYMQLSSLTSEDSAVYYCARYYGNYYAMDYWGQGTTVTVSSGGGGSGGGGSGGGGSDIVLTQSPAIMSASPGEKVTITCSVSSSRSSSNLHWYQQKSETSPKPWIYGTSNLASGVPGRFSGSGSGKLLLSHDQQHEAEDVATYYCFQGSGYPLTFGSGTKLEIKRAAAGAPVPYPDPLEPR | 0.00751 | 229000 | no binding (tested: 15.75 nM-250 nM ScFv) | 3.05e+07 | – | 3.04e+07 | – | –
4 | ScFv-A2 (scFv, V domains shown, Mouse anti-idiotypic single chain Fv, VH-(Gly4Ser)3 linker-VL, with a C-terminal E-Tag; also called ScFv KTIdAb; anti-idiotypic ScFv) VH: QVKLQQSGAELMKPGASVKISCKATGYTFSSYWIEWVKQRPGHGLEWIGEILPGSGSTNYNEKFKGKATFTADTSSNTAYMQLSSLTSEDSAVYYCARYYGNYYAMDYWGQGTTVTVSS | 0.00458 | 305000 | no binding (tested: 15.75 nM-250 nM ScFv) | 6.66e+07 | – | 6.65e+07 | ~1.2 | ~2
